Columns and labels:
[1] = target: wild-type human CD9 LEL (human) (UniProt P21926); assay: yeast display flow cytometry; MEM-61 10 µg/ml + goat anti-mouse (Fab′)2-Alexa Fluor 555; induction at 20 °C; secondary only 1.14
[2] = target: wild-type human CD9 LEL (human) (UniProt P21926); assay: yeast display flow cytometry; MEM-61 10 µg/ml + goat anti-mouse (Fab′)2-Alexa Fluor 555; induction at 37 °C; secondary only 4.21
[3] = target: streptavidin-Alexafluor 647 (UniProt P22629); assay: yeast display flow cytometry; secondary reagent only
Chain of streptavidin-Alexafluor 647 (P22629 37-163 limits assumed): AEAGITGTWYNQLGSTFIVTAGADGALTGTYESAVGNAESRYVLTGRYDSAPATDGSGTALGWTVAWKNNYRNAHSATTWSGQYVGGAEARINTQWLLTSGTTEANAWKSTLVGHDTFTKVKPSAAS

[4] = target: hCD81 LEL mutant C4C9 (Ala134Cys/Lys144Cys and Val135Cys/Ser168Cys) (human) (UniProt P60033); assay: ELISA; M38 coated at 5 µg/mL, CD81 LEL variant at 0.006859 µg/ml, anti-his-HRP
Chain of hCD81 LEL mutant C4C9 (Ala134Cys/Lys144Cys and Val135Cys/Ser168Cys) (human) (P60033 114-202 A134C/V135C/K144C/S168C): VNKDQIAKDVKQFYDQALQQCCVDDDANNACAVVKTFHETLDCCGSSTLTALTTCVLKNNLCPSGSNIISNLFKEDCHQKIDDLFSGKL

[5] = target: wild-type human CD81 LEL (human) (UniProt P60033); assay: as above
Chain of wild-type human CD81 LEL (human) (P60033 113-201 limits assumed): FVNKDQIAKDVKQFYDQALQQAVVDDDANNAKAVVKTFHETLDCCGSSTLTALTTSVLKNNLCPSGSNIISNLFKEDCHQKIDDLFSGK

[6] = target: hCD81 LEL mutant C4C9 (Ala134Cys/Lys144Cys and Val135Cys/Ser168Cys) (human) (UniProt P60033); assay: ELISA; M38 coated at 5 µg/mL, CD81 LEL variant at 0.061728 µg/ml, anti-his-HRP
[7] = target: wild-type human CD81 LEL (human) (UniProt P60033); assay: as above
[8] = target: wild-type human CD81 LEL (human) (UniProt P60033); assay: HEK293-6E cell display flow cytometry; M38 10 µg/ml + anti-mouse F(ab)2-Alexa Fluor 555; secondary only 8.52
[9] = target: hCD81 LEL mutant C4C9 (Ala134Cys/Lys144Cys and Val135Cys/Ser168Cys) (human) (UniProt P60033); assay: ELISA; M38 coated at 5 µg/mL, CD81 LEL variant at 0.020576 µg/ml, anti-his-HRP
[10] = target: wild-type human CD81 LEL (human) (UniProt P60033); assay: as above
[11] = target: hCD81 LEL mutant C4C9 (Ala134Cys/Lys144Cys and Val135Cys/Ser168Cys) (human) (UniProt P60033); assay: ELISA; M38 coated at 5 µg/mL, CD81 LEL variant at 5 µg/ml, anti-his-HRP
[12] = target: wild-type human CD81 LEL (human) (UniProt P60033); assay: as above
[13] = target: hCD81 LEL mutant C4C9 (Ala134Cys/Lys144Cys and Val135Cys/Ser168Cys) (human) (UniProt P60033); assay: ELISA; M38 coated at 5 µg/mL, CD81 LEL variant at 1.666667 µg/ml, anti-his-HRP
[14] = target: wild-type human CD81 LEL (human) (UniProt P60033); assay: as above
[15] = target: hCD81 LEL mutant C4C9 (Ala134Cys/Lys144Cys and Val135Cys/Ser168Cys) (human) (UniProt P60033); assay: ELISA; M38 coated at 5 µg/mL, CD81 LEL variant at 0.002286 µg/ml, anti-his-HRP
[16] = target: wild-type human CD81 LEL (human) (UniProt P60033); assay: as above
[17] = target: hCD81 LEL mutant C4C9 (Ala134Cys/Lys144Cys and Val135Cys/Ser168Cys) (human) (UniProt P60033); assay: ELISA; M38 coated at 5 µg/mL, CD81 LEL variant at 0.555556 µg/ml, anti-his-HRP
[18] = target: wild-type human CD81 LEL (human) (UniProt P60033); assay: as above
[19] = target: hCD81 LEL mutant C4C9 (Ala134Cys/Lys144Cys and Val135Cys/Ser168Cys) (human) (UniProt P60033); assay: ELISA; M38 coated at 5 µg/mL, CD81 LEL variant at 0.185185 µg/ml, anti-his-HRP
[20] = target: wild-type human CD81 LEL (human) (UniProt P60033); assay: as above

Chain of wild-type human CD9 LEL (human) (P21926 113-192 limits assumed): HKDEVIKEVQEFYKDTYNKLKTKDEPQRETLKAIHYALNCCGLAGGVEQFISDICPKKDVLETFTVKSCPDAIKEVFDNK

## anti-CD9 specific antibody MEM-61
[1]
  percentage of positive yeast cells: 46.4%
[2]
  percentage of positive yeast cells: 26.2%

## wild-type human CD81 LEL (from UniProt P60033 113-201)
[3]
  median fluorescence: 28.3

## anti-hCD81 M38 antibody
[4]
  A 450/620: 0.75
[5]
  A 450/620: 0.616
[6]
  A 450/620: 3.46
[7]
  A 450/620: 3.53
[8]
  MFI: 83.8
[9]
  A 450/620: 1.98
[10]
  A 450/620: 1.89
[11]
  A 450/620: 3.83
[12]
  A 450/620: 3.97
[13]
  A 450/620: 3.82
[14]
  A 450/620: 3.69
[15]
  A 450/620: 0.187
[16]
  A 450/620: 0.177
[17]
  A 450/620: 3.73
[18]
  A 450/620: 3.63
[19]
  A 450/620: 3.69
[20]
  A 450/620: 3.68

Reference: patent publication US20210395725A1
